Laboratory results published in article PMC11417369, “DNA sequence and chromatin differentiate sequence-specific transcription factor binding in the human malaria parasite Plasmodium falciparum”.

B1: GTGCAC_site10192 (dsDNA)
DNA 1: ATATTATTATATATAGTGCATATTATTATTTTTATT
DNA 2: AATAAAAATAATAATATGCACTATATATAATAATAT
B2: GTGCAC_site10538 (dsDNA)
DNA 1: TTATTATAATCATTAGTGCATATATTATTTTTATAT
DNA 2: ATATAAAAATAATATATGCACTAATGATTATAATAA
B3: GTGCAC_negctrl_site187 (dsDNA)
DNA 1: AGGAAACAAGAAATGAAGAATCATGTAGAAGGCCCA
DNA 2: TGGGCCTTCTACATGATTCTTCATTTCTTGTTTCCT
B4: GTGCAC_site9445 (dsDNA)
DNA 1: TCCTTTATTTTTAAAGTGCATATACATGTACATTAT
DNA 2: ATAATGTACATGTATATGCACTTTAAAAATAAAGGA
B5: GTGCAC_negctrl_site389 (dsDNA)
DNA 1: TATTATAAATTAATTTTAAACTTTATTATTATGATA
DNA 2: TATCATAATAATAAAGTTTAAAATTAATTTATAATA
B6: GTGCAC_site10226 (dsDNA)
DNA 1: TTTTATGCGCAATAAGTGCATTTAAAATATATATAT
DNA 2: ATATATATATTTTAAATGCACTTATTGCGCATAAAA
B7: GTGCAC_negctrl_site471 (dsDNA)
DNA 1: GATTATCTATCGCTTGAATGAAATGAAATCATGCAA
DNA 2: TTGCATGATTTCATTTCATTCAAGCGATAGATAATC
B8: GTGCAC_negctrl_site205 (dsDNA)
DNA 1: TATAATTATTTTTTTCTAAATATTATAAGGTATTCA
DNA 2: TGAATACCTTATAATATTTAGAAAAAAATAATTATA
B9: GTGCAC_site10175 (dsDNA)
DNA 1: ACTTTTTTGAACAACGTGCACGTATTCATAACAAAA
DNA 2: TTTTGTTATGAATACGTGCACGTTGTTCAAAAAAGT
B10: GTGCAC_site10446 (dsDNA)
DNA 1: ATGTATCCAATAGGAGTGCATAATTCTATTAACACC
DNA 2: GGTGTTAATAGAATTATGCACTCCTATTGGATACAT
B11: GTGCAC_site10359 (dsDNA)
DNA 1: TACACTTGTAATTGCGTGCACGAAGGATATATATAT
DNA 2: ATATATATATCCTTCGTGCACGCAATTACAAGTGTA
B12: GTGCAC_negctrl_site176 (dsDNA)
DNA 1: TTTAATTAATAATAATATAAATTGTTCTTTTTTTTT
DNA 2: AAAAAAAAAGAACAATTTATATTATTATTAATTAAA
B13: GTGCAC_site9697 (dsDNA)
DNA 1: GAACATTTATTGTGTGTGCACAATTCTTTTTTAACC
DNA 2: GGTTAAAAAAGAATTGTGCACACACAATAAATGTTC
B14: GTGCAC_site9718 (dsDNA)
DNA 1: TCTTTTTGCATGTGTGTGCGCACAAAATACACAAAA
DNA 2: TTTTGTGTATTTTGTGCGCACACACATGCAAAAAGA
B15: GTGCAC_site10256 (dsDNA)
DNA 1: AAGGAATGCATATAGGTGCTACACATAAAAATAAAA
DNA 2: TTTTATTTTTATGTGTAGCACCTATATGCATTCCTT
B16: GTGCAC_site10531 (dsDNA)
DNA 1: AGTAATTATTTTAGAGTGCATAGTTTTTTAATAAAT
DNA 2: ATTTATTAAAAAACTATGCACTCTAAAATAATTACT
B17: GTGCAC_site9663 (dsDNA)
DNA 1: AAATAGTAAGAGATGGTGCGTTTCCTTTTTTTTTTT
DNA 2: AAAAAAAAAAAGGAAACGCACCATCTCTTACTATTT
B18: GTGCAC_negctrl_site419 (dsDNA)
DNA 1: GAAGGAAAAGATACGATAAAATAAGATATTAATTTA
DNA 2: TAAATTAATATCTTATTTTATCGTATCTTTTCCTTC
B19: GTGCAC_site10774 (dsDNA)
DNA 1: ACGTTAAAATATTGGGTGCTAACACAATAAAAATAA
DNA 2: TTATTTTTATTGTGTTAGCACCCAATATTTTAACGT
B20: GTGCAC_negctrl_site504 (dsDNA)
DNA 1: TTTCAAGGATTTAATTTATGGAAACCTTCTTCATTT
DNA 2: AAATGAAGAAGGTTTCCATAAATTAAATCCTTGAAA
B21: GTGCAC_negctrl_site401 (dsDNA)
DNA 1: AAAAAAATTAAAAATAAAGAAAAAAAAAAAAAAAAA
DNA 2: TTTTTTTTTTTTTTTTTCTTTATTTTTAATTTTTTT
B22: GTGCAC_site10234 (dsDNA)
DNA 1: TAAAACAAAAAAAAGATGCACTATTTATTTTATTAT
DNA 2: ATAATAAAATAAATAGTGCATCTTTTTTTTGTTTTA
B23: GTGCAC_site9975 (dsDNA)
DNA 1: TGATTCACTATAGTAGTGCATATTATATATATATAT
DNA 2: ATATATATATATAATATGCACTACTATAGTGAATCA
B24: GTGCAC_negctrl_site530 (dsDNA)
DNA 1: AATATATCAAAAATGATGACATAAATATATTAATTT
DNA 2: AAATTAATATATTTATGTCATCATTTTTGATATATT
B25: GTGCAC_site9982 (dsDNA)
DNA 1: ATTGTTATTTATTGTGTGCGCATTAATACATACATA
DNA 2: TATGTATGTATTAATGCGCACACAATAAATAACAAT
B26: GTGCAC_site10335 (dsDNA)
DNA 1: ATCAAGCGCAATGTGGTGCGTAAATTTTGTATTATA
DNA 2: TATAATACAAAATTTACGCACCACATTGCGCTTGAT
B27: GTGCAC_site10484 (dsDNA)
DNA 1: AAATTTGCTTTACCAGTGCAAAAAAAAAAAAAAAAA
DNA 2: TTTTTTTTTTTTTTTTTGCACTGGTAAAGCAAATTT
B28: GTGCAC_negctrl_site386 (dsDNA)
DNA 1: AAGATAAACTTTTTTAATTAATTTAATTTTTTTTTT
DNA 2: AAAAAAAAAATTAAATTAATTAAAAAAGTTTATCTT
B29: GTGCAC_negctrl_site536 (dsDNA)
DNA 1: TGAAAAAATATAAAATATAAAATAAAAAATATAAAA
DNA 2: TTTTATATTTTTTATTTTATATTTTATATTTTTTCA
B30: GTGCAC_site10455 (dsDNA)
DNA 1: AATATTCAATATAAAGTGCATTATTGTGGACCTAAT
DNA 2: ATTAGGTCCACAATAATGCACTTTATATTGAATATT
B31: GTGCAC_negctrl_site629 (dsDNA)
DNA 1: TTGTTTTCTTTTTCTTTTCTTTTTCTTTTTTCTTTT
DNA 2: AAAAGAAAAAAGAAAAAGAAAAGAAAAAGAAAACAA
B32: GTGCAC_site10227 (dsDNA)
DNA 1: TATACATATTTACAAGTGCATAATATTTTACAAAAA
DNA 2: TTTTTGTAAAATATTATGCACTTGTAAATATGTATA
B33: GTGCAC_negctrl_site453 (dsDNA)
DNA 1: AATAGGAAGACTATTTTGTATTTGATTTTTTATTCC
DNA 2: GGAATAAAAAATCAAATACAAAATAGTCTTCCTATT
B34: GTGCAC_site9588 (dsDNA)
DNA 1: AAAAAAAAAAATTCGGTGCAATGTAATTAATGTAAA
DNA 2: TTTACATTAATTACATTGCACCGAATTTTTTTTTTT
B35: GTGCAC_negctrl_site373 (dsDNA)
DNA 1: AATAAATTAAATAAAAATGTTTAACATAAAATATGA
DNA 2: TCATATTTTATGTTAAACATTTTTATTTAATTTATT
B36: GTGCAC_site10395 (dsDNA)
DNA 1: ACTTTAGAAATAGAGGTGCTATTTTTATTACCACAC
DNA 2: GTGTGGTAATAAAAATAGCACCTCTATTTCTAAAGT
B37: GTGCAC_site9794 (dsDNA)
DNA 1: AAAAATATATATTCAGTGCATATAACAAAAATTATA
DNA 2: TATAATTTTTGTTATATGCACTGAATATATATTTTT
B38: GTGCAC_site10711 (dsDNA)
DNA 1: TAATAAAATATGTACGTGCACATAATTATACTAAAA
DNA 2: TTTTAGTATAATTATGTGCACGTACATATTTTATTA
B39: GTGCAC_site9453 (dsDNA)
DNA 1: TGTTTTATTTTATTAGTGCATTTTTATTTATAATAG
DNA 2: CTATTATAAATAAAAATGCACTAATAAAATAAAACA
B40: GTGCAC_negctrl_site525 (dsDNA)
DNA 1: TTTCTAAGAAAAAAAAAAAAAAAAAAAAAGATACAA
DNA 2: TTGTATCTTTTTTTTTTTTTTTTTTTTTCTTAGAAA
B41: GTGCAC_site9653 (dsDNA)
DNA 1: GTGTACTTTTAAATAGTGCATTTTACAATAATAAAA
DNA 2: TTTTATTATTGTAAAATGCACTATTTAAAAGTACAC
B42: GTGCAC_negctrl_site53 (dsDNA)
DNA 1: TGAAAAATTACAAAAATAATAAAATGAAATAATAAA
DNA 2: TTTATTATTTCATTTTATTATTTTTGTAATTTTTCA
B43: GTGCAC_negctrl_site410 (dsDNA)
DNA 1: TTATCTTAATTGTGATTATAAAGATATTCTTTCTAT
DNA 2: ATAGAAAGAATATCTTTATAATCACAATTAAGATAA
B44: GTGCAC_negctrl_site79 (dsDNA)
DNA 1: TTTTAAAAAAGAAAAAAAAAGGATCAGAGAAATATT
DNA 2: AATATTTCTCTGATCCTTTTTTTTTCTTTTTTAAAA

These binders were tested against T1, SIP2 D1 (Plasmodium falciparum, UniProt C6KSN9 177-235) (assay: gcPBM; about 25 ug protein; PBS, 1% milk, 0.2 mg/ml BSA, salmon testes DNA, 0.03% Triton X-100). Details: tags: N-terminal GST (pGEX-4T-1), kept; label: surface-attached array probe.
T1 sequence: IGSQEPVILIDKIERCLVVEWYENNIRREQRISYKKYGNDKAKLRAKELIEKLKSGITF

Compared with B1, B2 is lower in binding signal: 9.16 ln median PBM intensity, better of two orientations for the first, 8.55 ln median PBM intensity, better of two orientations for the second.

Going from B3 to B4, the binding signal rises from 6.71 ln median PBM intensity, better of two orientations to 8.63 ln median PBM intensity, better of two orientations.

First: B5
Second: B6
The binding signal of the first is lower: 6.7 ln median PBM intensity, better of two orientations for the first, 8.59 ln median PBM intensity, better of two orientations for the second.

Going from B7 to B8, the binding signal falls from 6.65 ln median PBM intensity, better of two orientations to 6.55 ln median PBM intensity, better of two orientations.

Compared with B9, B10 is higher in binding signal: 8.77 ln median PBM intensity, better of two orientations for the first, 9.02 ln median PBM intensity, better of two orientations for the second.

First: B11
Second: B12
The binding signal of the first is higher: 8.81 ln median PBM intensity, better of two orientations for the first, 6.5 ln median PBM intensity, better of two orientations for the second.

First: B13
Second: B14
The binding signal of the first is lower: 8.57 ln median PBM intensity, better of two orientations for the first, 9.06 ln median PBM intensity, better of two orientations for the second.

Compared with B15, B16 is lower in binding signal: 9.67 ln median PBM intensity, better of two orientations for the first, 8.98 ln median PBM intensity, better of two orientations for the second.

Compared with B17, B18 is lower in binding signal: 9.3 ln median PBM intensity, better of two orientations for the first, 6.61 ln median PBM intensity, better of two orientations for the second.

First: B19
Second: B20
The binding signal of the first is higher: 8.87 ln median PBM intensity, better of two orientations for the first, 6.53 ln median PBM intensity, better of two orientations for the second.

First: B21
Second: B22
The binding signal of the first is lower: 6.66 ln median PBM intensity, better of two orientations for the first, 9.6 ln median PBM intensity, better of two orientations for the second.

Going from B23 to B24, the binding signal falls from 9.26 ln median PBM intensity, better of two orientations to 6.58 ln median PBM intensity, better of two orientations.

First: B25
Second: B26
The binding signal of the first is lower: 9.22 ln median PBM intensity, better of two orientations for the first, 9.46 ln median PBM intensity, better of two orientations for the second.

Compared with B27, B28 is lower in binding signal: 8.74 ln median PBM intensity, better of two orientations for the first, 6.66 ln median PBM intensity, better of two orientations for the second.

Going from B29 to B30, the binding signal rises from 6.67 ln median PBM intensity, better of two orientations to 9.41 ln median PBM intensity, better of two orientations.

Going from B31 to B32, the binding signal rises from 6.64 ln median PBM intensity, better of two orientations to 8.65 ln median PBM intensity, better of two orientations.

Compared with B33, B34 is higher in binding signal: 6.62 ln median PBM intensity, better of two orientations for the first, 9.5 ln median PBM intensity, better of two orientations for the second.

First: B35
Second: B36
The binding signal of the first is lower: 6.67 ln median PBM intensity, better of two orientations for the first, 8.7 ln median PBM intensity, better of two orientations for the second.

First: B37
Second: B38
The binding signal of the first is lower: 8.79 ln median PBM intensity, better of two orientations for the first, 8.95 ln median PBM intensity, better of two orientations for the second.

Going from B39 to B40, the binding signal falls from 9.34 ln median PBM intensity, better of two orientations to 6.64 ln median PBM intensity, better of two orientations.

First: B41
Second: B42
The binding signal of the first is higher: 9.56 ln median PBM intensity, better of two orientations for the first, 6.68 ln median PBM intensity, better of two orientations for the second.

Going from B43 to B44, the binding signal rises from 6.56 ln median PBM intensity, better of two orientations to 6.69 ln median PBM intensity, better of two orientations.
